Experimental findings from the nanobody polyreactivity screen of Harvey et al. (2022) are described below.

This data set is described as follows: yeast display, Sf9 membrane polyspecificity reagent, FACS + sequencing; frameworks hold sequencing errors. Summed up: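 Nanobodies came from a synthetic yeast display library in Saccharomyces cerevisiae BJ5465, induced with galactose for 36–48 hours and stained for 1 hour at 4 °C with 10% biotinylated, detergent-solubilized Sf9 membrane reagent. Cells were enriched on streptavidin microbeads and then FACS-sorted, with low and high (top ~1%) gates set on anti-HA fluorescence for expression and streptavidin fluorescence for reagent binding. Each polyreactivity label reflects the gate a clone came from. Genes were amplified by colony PCR, sequenced by MiSeq 2 × 250 and filtered by CDR length.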
In the case of “QVQLVESGGGLVQAGGSLRLSCAASGFIFASYTMGWYRQAPGNEREWVAAISRSGGRTYYADSVKGRFTISRDNAKKTVYLQMNSLKPEDTAVYYCATLETTGVNYWGQGTQVTVSS”, the “polyreactivity (PSR sort gate)” value is listed as “high polyreactivity”.
As for “QVQLVESGGGLVQAGGSLRLSCAASGFIFATYTMGWYRQAPGKERELVAAITWRGGSTYYADSVKGRFTISRDNAKNTVYLQMNSLKPEDTAVYYCAAPDVYSYRYVEDDYWGQGTQVTVSS”, the entry is “low polyreactivity”; as for “QVQLVESGGGLVQAGGSLRLSCAASGFIFATYTMGWYRQAPGKERKLVAAITWRGGSTYYADSVKGRFTISRDNAKNSVYLQMNSLKPEDTAVYYCAAQDVYSYRYVEDDYWGQGTQVTVSS”, “low polyreactivity”; as for “QVQLVESGGGLVQAGGSLRLSCAASGFIFAWYAMGWYRQAPGKERELVADITSGGDTSYADSVKGRFTISRDNAKNTVYLQMNSLKPEDTAVYYCARDVYIWYGYGYFPEYEYWGQGTQVTVSS”, “low polyreactivity”.
With “QVQLVESGGGLVQAGGSLRLSCAASGFIFAYYAMGLYRQAPGKERELVAAITSDGSTYYADSVKGRFTISRDNAKNTVYLQMNSLKPEDTAVYYCNTYWVLRPGYNYWGQGTQVTVSS” the entry was “high polyreactivity”; with “QVQLVESGGGLVQAGGSLRLSCAASGFIFAYYAQGWYRQAPGKERELVAAITSRGGSTYYADSVKGRFTSSRDNAKNTVYVQMNSLKPEDTAVYYCAGRGYQRQYYYWGQGTQVTVSS”, “high polyreactivity”; with “QVQLVESGGGLVQAGGSLRLSCAASGFIFCPNDMGWYRQAPGKERELVADISGTGGGTYADSVKGRFTISRDNAKNTVYLQMNSLKPEDTAVYYCAALYGLYVSPYWYTGYYWGQGTQVTVSS”, “low polyreactivity”.
As for “QVQLVESGGGLVQAGGSLRLSCAASGFIFDAYALGWYRQAPGKERELVAAITRGNTYYADSVKGRFTISRDNAKNTVYLQMNSLKPEDTAVYYCAARYWQSYRSQVTHSSTLDYWGQGTQVTVSS”, the entry is “low polyreactivity”; as for “QVQLVESGGGLVQAGGSLRLSCAASGFIFDEYAMGWYRQAPGKERELVAAISWSGSRTYYADSVKGRFTISRDNAKNTVYLQMNSLKPQDTAVDYCAKVTAVGAGRRNYWGQGTQVTVSS”, “low polyreactivity”; as for “QVQLVESGGGLVQAGGSLRLSCAASGFIFDEYTMGWYRQAPGKERELVAAITSSGGTDYADSVKGRFTISRDNAKNTVYLQMNSLKPEDTAVYYCNTEDYYRDYDYWGQGTQVTVSS”, “low polyreactivity”.
For the sequence “QVQLVESGGGLVQAGGSLRLSCAASGFIFDFYTMGWYRQAPGKERELVAAITNAGSTYYADSVKGRFTISRDNAMNTFYLHMNSLKPEDTAVYYCAAYYRSRHHGYDSWGQGTQVTVSS”, the “polyreactivity (PSR sort gate)” value is on record as “low polyreactivity”.
Take “QVQLVESGGGLVQAGGSLRLSCAASGFIFDGYAMGWYRQAPGKERELVAAISSVGSTYYADSVKGRFTISRDNAKNTVYLQMNSLKPEDTAVYYCARGLEERYDYWGQGTQVTVSS”: the “polyreactivity (PSR sort gate)” value is “low polyreactivity”.
Turning to “QVQLVESGGGLVQAGGSLRLSCAASGFIFDNNAMGWYRQAPGKERELVATITSGGRTNYADSVKVRFTISRDNAKNTVYLQMNSLKPEDTAVYYCAAGYYLGSRRKTRDYWGQGTQVTVSS”, the “polyreactivity (PSR sort gate)” value was “low polyreactivity”.
As for “QVQLVESGGGLVQAGGSLRLSCAASGFIFDPNAMGWYRQAPGRERELVAAISSSGGRTYYADSVKGRFTISRDNAKNTVYLQMNSLKPEDTAVYYCATDTSVQGQEYDYWGQGTQVTVSS”, the entry is “low polyreactivity”.
With “QVQLVESGGGLVQAGGSLRLSCAASGFIFDPYAMGWYRQAPGKERELVAAISRGGSTYYADSVKGRFTISRDNAKNIVYLQMNSLKPEDTAVYYCAAVFKFTREYSTGIRYYYWGQGTQVTVSS” the entry was “high polyreactivity”; with “QVQLVESGGGLVQAGGSLRLSCAASGFIFDQNAMGWYRQAPGKERELVAAITRSGGCTYYADSVKGRFTISRDNAKNTVYLQMYSLNPEDTAVYYCAADLSYRGATRGDYYWGPGTQVTVSS”, “low polyreactivity”; with “QVQLVESGGGLVQAGGSLRLSCAASGFIFDQYAMGWYRQAPGKERELVAAITTGGDTNYADSVKGRFTISRDNAKNTVYLQMISLKPDDSAVYYCAAKKWLTSGAFDRVFIEFDYWGQGTQVTVSS”, “low polyreactivity”.
With “QVQLVESGGGLVQAGGSLRLSCAASGFIFDRYAMGWYRQAPGKERELVAAITGSGGSTYYGDSVKGRFTISRDNAKNTVYLQMNSLKPEDTAVYYCNTGGRSGSPGYDYWGQGTQVTVSS” the entry was “high polyreactivity”; with “QVQLVESGGGLVQAGGSLRLSCAASGFIFDSYAMGWYRQAPGKERELVAAISDGSSTYADSVKGRFTISRDNAKNTVYLQMNSLKPEDTAVYYCAAGVSTWWSTYDYWGQGTQVTVSS”, “high polyreactivity”.
“QVQLVESGGGLVQAGGSLRLSCAASGFIFDTYAMGWYRQAPGKERELVAAISWTGTDTYYADSVKGRFTISRDNAKNTVYLQMNSLKPEDTAVYYCAARSRYKYSPSGDYWGQGTQVTVSS”: the “polyreactivity (PSR sort gate)” value was “high polyreactivity”.
With “QVQLVESGGGLVQAGGSLRLSCAASGFIFDVYAMGWYRQAPGKERELVAAISVSSTNYADSVKGRFTISRDNAKNTVYLQMNSLKPEDTAVYYCAADTYTYFLASYLYGQYDYWGQGTQVTVSS” the entry was “low polyreactivity”; with “QVQLVESGGGLVQAGGSLRLSCAASGFIFDVYAMGWYRQAPGKERELVAAITSGDGTNYADSVKGRFTISRDNAKNTVYLQMNSLKPEDTAVYYCAADYGVTYRGIIFSYWGQGTQVTVSS”, “low polyreactivity”.
With “QVQLVESGGGLVQAGGSLRLSCAASGFIFDVYAMGWYRQAPGTERELVAAITSGDGTNYADSVKGRFTISRDNAKNTVYLQMNSLKPEETAVYYCAADDGVTYRGIIFSYWGQGTQVTVSS” the entry was “low polyreactivity”; with “QVQLVESGGGLVQAGGSLRLSCAASGFIFDWYAMGSYSQAPGKEREFVAAINWSGGSTYYADSVKGRFTISRDNAKNTVYLQMNSLKPEDTAVYYCAAYRPYSSSEGVYWGQGTQVTVSS”, “high polyreactivity”.
In the case of “QVQLVESGGGLVQAGGSLRLSCAASGFIFDYNTMGWYRQEPGKERELVADISGGGGRTYYADSVKGRFTISRDNAKNTVYLQMNSLKPEDTAVYYCAALGYYHHAWWISYDYWGQGTQVTVSS”, the “polyreactivity (PSR sort gate)” value is reported as “low polyreactivity”.
As for “QVQLVESGGGLVQAGGSLRLSCAASGFIFDYYAMGWYRQAPGKEREFVAAITWDGGSTYYADSVKGRFTISRDNAKNTVYLQMNSLKPEDTAVYYRAAETWGEYGYWGQGTQVTVSS”, the entry is “low polyreactivity”.
Regarding “QVQLVESGGGLVQAGGSLRLSCAASGFIFDYYAMGWYRQAPGKERELVAAITSRSGSTYYADSVKGRFTISRDNAKNTVYLQMNSLKPEDTAVYYCAARRARRDPVGYVYAKYGYWGQGTQVTVSS”, the “polyreactivity (PSR sort gate)” value is on record as “high polyreactivity”.
On to “QVQLVESGGGLVQAGGSLRLSCAASGFIFEGYAMGWYRQAPGKERELVATISRSGGRTNYADSVKGRFTISRDNAKNTVYLQMNSLKPEDTAVYYCAAAYLRRVAYDYWGQGTQVTVSS”, for which the “polyreactivity (PSR sort gate)” value is listed as “high polyreactivity”.
With “QVQLVESGGGLVQAGGSLRLSCAASGFIFETNAMGWYRQAPGKERELVAAISSRGGSTYYADSVKGRFTISRDNAKNTVYLQMNSLKPEDTAVYYCAAKLVVSYGQEYDYWGQGTQVTVSS” the entry was “low polyreactivity”; with “QVQLVESGGGLVQAGGSLRLSCAASGFIFFTYAMGWYRQAPGKERELVADISSRGGSTYYADSVKGRFTISRDNAKNTVYLQMNSLKPEDTAVYYCARTRFWLRYRLFDYWGQGTQVTVSS”, “low polyreactivity”; with “QVQLVESGGGLVQAGGSLRLSCAASGFIFFTYAMGWYRQAPGKVRELVAAITSRGGRTYYADSVKGRFTISRDNAKNTVYLQMNILKPEDTAVYYCAVDPVRRYRYDYWGQGTQVTVSS”, “low polyreactivity”.
With “QVQLVESGGGLVQAGGSLRLSCAASGFIFFYNAMGWYRQAPGKERELVAAISARGGSTYYADSVKGRFTISRDNAKNTVYLQMNSLKPEDTAVYYCNAVFPWPYVSRSIYWYYWGQGTQVTVSS” the entry was “high polyreactivity”; with “QVQLVESGGGLVQAGGSLRLSCAASGFIFGANAMGWYRPAPGKERELVASINGSGGSTFYADSVKGRFTISRDNAKNTVYLQMNSLNPEDTAVYYCAAPCFCWFTTGGYYYWGQGTQVTVSS”, “low polyreactivity”; with “QVQLVESGGGLVQAGGSLRLSCAASGFIFGAYAMGWYRQAPGKERELVAALSSRGGNTYYADSVKGRFTISRDNAKNTVYLQMNSLKPEDTAVYYCNAVGYARYLYVPPPYDYWGQGTQVTVSS”, “high polyreactivity”.
As for “QVQLVESGGGLVQAGGSLRLSCAASGFIFGFNAMGWYRQAPGKERELVAVISARGGRTYYADSVKGRFTISRDNAKNTVYLQMNSLKPEDTAVYYCAADDFFRYFFTHWVGDDYWGQGTQVTVSS”, the entry is “low polyreactivity”; as for “QVQLVESGGGLVQAGGSLRLSCAASGFIFGFYAMGWYRQAPGKERELVAAISGGGGRTNYADSVKGRFTISRDNAKNTVYLQMNSLKPEDTAVYYCARSPSYYSYTFGRQAYGNDYWGQGTQVTVSS”, “high polyreactivity”; as for “QVQLVESGGGLVQAGGSLRLSCAASGFIFGHNTMGWYRQAPGKERELVARITSSGGGTNYADSVKGRFTISRDNAKNTVYLQMNSLKPEDTAVYYCAAELLYWGYYDYDYWGQGTQVTVSS”, “high polyreactivity”.
In the case of “QVQLVESGGGLVQAGGSLRLSCAASGFIFGHYAMGWYRPAPGKERELVAGINSSGGSTHYADSVKGRFTISRDNAKNTVYLQMNSLKPEDTAVYYCAADVYRYYAGSRYYYWGQGTQVTVSS”, the “polyreactivity (PSR sort gate)” value is given as “low polyreactivity”.
With “QVQLVESGGGLVQAGGSLRLSCAASGFIFGINAMGWSRQAPGKERELVAAISRSGGRTYYADSVKGRCTISRDNAKNTVYLQMNSLKPEDTAVYYCAADKASYTNYDGDSWGQGTQVTVSS” the entry was “high polyreactivity”; with “QVQLVESGGGLVQAGGSLRLSCAASGFIFGINAMGWYRQAPGKERELVATITSGGGTNYADSVKGRFTISRDNAKNTVYLQMNSLKPEDTAVYYCAAEEDYIYFYVSMDYWGQGTQVTVSS”, “low polyreactivity”.
